In patent US20140328797A1:

Target: HRV-A and B strains tested
Assay: binding to HRV; format not stated in this example

B1: TCN-711 (6893_E11) (antibody, human IgG1, lambda, V domains shown)
VH: QVQLHQWGTGVLKPSGTLSLTCGVYGGSLTDFYWTWIRQSPARGLEWLGEIDRDGATYYNPSLKSRITISIDTSKKQFSLNLRSVTAADRAVYYCARRPMLRGVWGNFRSNWFDPWGQGTQVTVSS
VL: QSVLTQPPSVSAAPGQKVSISCSGSSSNIGYSYVSWYQQVPGSAPKLLIYENNKRPSGIPDRFSASKSGTSATLDITGLQTGDEADYYCGTWDTRLFGGVFGGGTKLTVLG
B1 showed an EC50 of 0.007 to 0.07 nM.
